Data from PMC9520665, “Chaperonin containing TCP-1 (CCT/TRiC) is a novel therapeutic and diagnostic target for neuroblastoma” (Frontiers in Oncology, 2022).
Where no end group is shown, it is not given here.

Assays:
full-length HIS-CCT2 = target: T1, full-length HIS-CCT2 (human, UniProt P78371-1 1-535); assay: pull-down; 0.1-50 nmol biotin-CT20p (or biotin alone) mixed with 0.1 nmol recombinant CCT2 protein in 20 mM Tris-HCl, 3 h at room temperature, then overnight at 4°C with streptavidin-agarose beads; immunoblot for CCT2; details: both partners purified
T1 construct: CCT2, second subunit of chaperonin containing TCP-1 (CCT/TRiC); The species is stated for CCT2 in general (human), not for the recombinant construct; also called recombinant full-length CCT2 protein; CCTβ; source: E. coli BL21 (DE3) and Rosetta, purified (Ni-NTA, SEC)
T1 sequence (looked up): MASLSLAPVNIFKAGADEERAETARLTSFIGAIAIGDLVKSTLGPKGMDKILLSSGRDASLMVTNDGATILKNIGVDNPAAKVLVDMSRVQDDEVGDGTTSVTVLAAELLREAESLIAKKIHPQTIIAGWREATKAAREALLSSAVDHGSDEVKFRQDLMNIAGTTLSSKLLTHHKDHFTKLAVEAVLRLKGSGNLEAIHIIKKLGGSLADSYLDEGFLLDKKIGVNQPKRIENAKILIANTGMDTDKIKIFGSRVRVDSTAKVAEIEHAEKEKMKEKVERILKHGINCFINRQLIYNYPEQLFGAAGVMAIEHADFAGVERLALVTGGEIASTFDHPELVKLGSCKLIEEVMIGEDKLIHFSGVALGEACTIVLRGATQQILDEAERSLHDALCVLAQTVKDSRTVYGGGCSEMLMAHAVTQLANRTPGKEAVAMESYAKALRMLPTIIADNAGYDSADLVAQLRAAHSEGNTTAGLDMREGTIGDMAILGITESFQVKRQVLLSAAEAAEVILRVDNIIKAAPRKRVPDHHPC

CCT2(17-526) = target: T2, CCT2(17-526) (human, UniProt P78371-1 17-526); assay: as above; details: both partners purified
T2 construct: CCT2 truncation that retains more of the equatorial domain; A TEV protease site replaced the thrombin site between GST and CCT2
T2 sequence (looked up): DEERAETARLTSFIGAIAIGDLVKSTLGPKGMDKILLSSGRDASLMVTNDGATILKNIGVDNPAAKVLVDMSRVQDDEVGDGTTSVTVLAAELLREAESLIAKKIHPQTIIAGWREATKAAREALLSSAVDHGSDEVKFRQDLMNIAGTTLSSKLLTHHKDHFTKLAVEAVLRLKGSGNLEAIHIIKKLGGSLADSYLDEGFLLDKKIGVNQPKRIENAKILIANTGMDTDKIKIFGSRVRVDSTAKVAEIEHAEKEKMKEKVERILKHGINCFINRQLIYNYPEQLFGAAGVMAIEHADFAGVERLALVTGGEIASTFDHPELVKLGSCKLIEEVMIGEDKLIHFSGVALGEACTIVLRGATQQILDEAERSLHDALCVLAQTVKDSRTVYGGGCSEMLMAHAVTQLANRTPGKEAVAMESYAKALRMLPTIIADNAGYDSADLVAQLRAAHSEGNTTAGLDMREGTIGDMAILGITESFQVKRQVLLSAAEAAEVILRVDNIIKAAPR

B1: biotinylated CT20p (peptide)
peptide: VTIFVAGVLTASLTIWKKMG
modifications: also: biotin, position not given here
notes: 20 amino acid amphipathic peptide derived from the C-terminus of the apoptotic protein Bax; also called biotin-CT20p; source: synthetic peptide, commercially synthesized (BioPeptides Inc)
- binding result (full-length HIS-CCT2): binds
- binding result (CCT2(17-526)): binds
